Reference: patent US20040091907

Experiments:
[1] = target: T1, GEF-H1 peptide 807-824 with phospho-serine at position 810
T1 chain: RRRSLPAGDALYLSFNPP

[2] = target: T2, GEF-H1 peptide, amino acids 55-72
T2 chain: RQSLLGSRRGRSSLSLAK

[3] = target: T3, GEF-H1 peptide, amino acids 807-824 (unphosphorylated)
T3 chain: RRRSLPAGDALYLSFNPP

[4] = target: GST (Glutathione-S-transferase) [GST: P08515]
[5] = target: T4, GST-GEF-H1S (aa763-921)
T4 chain: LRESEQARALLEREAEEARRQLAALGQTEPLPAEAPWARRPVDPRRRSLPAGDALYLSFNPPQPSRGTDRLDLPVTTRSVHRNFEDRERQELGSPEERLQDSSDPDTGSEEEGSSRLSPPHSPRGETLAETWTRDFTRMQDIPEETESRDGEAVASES

[6] = target: GST-Maguin-2-like fusion protein (amino acids 385-555) [GST: P08515]
Sequence of GST-Maguin-2-like fusion protein (amino acids 385-555) [GST: P08515] (P08515 whole entry, looked up, the tested form may be a part): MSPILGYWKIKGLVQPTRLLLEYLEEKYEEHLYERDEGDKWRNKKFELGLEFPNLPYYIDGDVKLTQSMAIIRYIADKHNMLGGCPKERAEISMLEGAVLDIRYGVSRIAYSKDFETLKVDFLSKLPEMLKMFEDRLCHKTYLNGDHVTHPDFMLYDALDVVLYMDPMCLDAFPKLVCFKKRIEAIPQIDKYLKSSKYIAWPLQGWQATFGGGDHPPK

Sequence of GST (Glutathione-S-transferase) [GST: P08515] (P08515 whole entry, the tested form may be a part): as the sequence (P08515 whole entry, looked up, the tested form may be a part) above

B1: Glutathione-s-transferase (GST) fused PAK4 (residues 291-591) (protein)
chain: SPQREPQRVSHEQFRAALQLVVDPGDPRSYLDNFIKIGEGSTGIVCIATVRSSGKLVAVKKMDLRKQQRRELLFNEVVIMRDYQHENVVEMYNSYLVGDELWVVMEFLEGGALTDIVTHTRMNEEQIAAVCLAVLQALSVLHAQGVIHRDIKSDSILLTHDGRVKLSDFGFCAQVSKEVPRRKSLVGTPYWMAPELISRLPYGPEVDIWSLGIMVIEMVDGEPPYFNEPPLKAMKMIRDNLPPRLKNLHKVSPSLKGFLDRLLVRDPAQRATAAELLKHPFLAKAGPPASIVPLMRQNRTR
- phosphorylation in an in vitro kinase assay [1]: Peptides with phospho-serine at position 810 were no longer substrates for PAK4
- phosphorylation in in vitro kinase assays [2]: are phosphorylated by PAK4
- Km (in vitro kinase assay) [3]: also a high affinity substrate for PAK4 with a similar Km for PAK4 as the GST-GEF-H1 (793-921) fusion protein
- phosphorylation in in vitro kinase assays [3]: are phosphorylated by PAK4
- phosphorylation in an in vitro kinase assay [4]: PAK4 fails to phosphorylate the GST control
- phosphorylation in an in vitro kinase reaction (SDS-PAGE, autoradiograph) [4]: no phosphorylation of the fusion partner GST
- Km (in vitro kinase assay) [5]: Km is the 1 to 5 uM range
- phosphorylation in an in vitro kinase reaction (SDS-PAGE, autoradiograph) [5]: The autoradiograph showed phosphorylation of the GEF-H1S polypeptide
- phosphorylation in an in vitro kinase assay [6]: weakly phosphorylated the GST-Maguin-2-like fusion protein
